Assay results from patent publication US20080241919A1, “Defined media for pluripotent stem cell culture” (The Burnham Institute of Medical Research, priority 2003, published 2008).

System: human embryonic stem cells (hESCs)
Test: Other growth factors in place of bFGF for undifferentiated growth of hESCs
Type: cell-based
Conditions: feeder- and serum-free conditions
Experimental: All the growth factors were dissolved in a PBS buffer that contained 0.5% BSA, 1 mM DTT (Dithiothreitol) and 10% glyceral as a 10 μg/ml (500×) stock solution and stored in aliquots at −80° C. These factors were added individually to the hESC cultures at a concentration of 20 ng/ml, in the absence of bFGF or in the presence of a low concentration of bFGF (4 ng/ml). Seven days after seeding undifferentiated hESCs on laminin/collagen-coated plates, the cultures were examined.

B1: activin-A: human growth factor tested in place of bFGF (protein, UniProt P08476 311-426, looked up)
Inhibin beta A chain: GLECDGKVNICCKKQFFVSFKDIGWNDWIIAPSGYHANYCEGECPSHIAGTSGSSLSFHSTVINHYRMRGHSPFANLKSCCVPTKLRPMSMLYYDDGQNIIKKDIQNMIVEECGCS
ability to replace bFGF in supporting undifferentiated growth of hESCs: can not replace bFGF
